This experiment has as its target T1, alpha subunit of the human FcεRI receptor (IgE high affinity receptor), expressed on Chinese hamster ovary … (human, UniProt P12319 26-257).
T1 construct: whole, on cells; also called CHO FcεRI+ cells; FcεRIα
T1 sequence (looked up): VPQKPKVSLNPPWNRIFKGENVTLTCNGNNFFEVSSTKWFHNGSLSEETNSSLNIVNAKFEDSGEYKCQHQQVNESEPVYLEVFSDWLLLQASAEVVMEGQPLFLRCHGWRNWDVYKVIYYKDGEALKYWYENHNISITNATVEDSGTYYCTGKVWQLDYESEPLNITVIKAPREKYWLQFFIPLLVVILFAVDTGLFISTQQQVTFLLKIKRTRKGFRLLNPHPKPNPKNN
Kind of experiment: inhibition of 125I-IgE binding to CHO cells expressing human FcεRI alpha; competitor IgE. The method, then:
To determine the ability of peptides to inhibit IgE binding to FcεRI, a cell-based binding assay was used with radiolabeled IgE. Chinese hamster ovary cells expressing the alpha subunit of the human FcεRI receptor were cultured overnight in Falcon 96 well microtiter plates at a concentration of 5 ×10^4 cells per well. The following day the cells were rinsed three times with PBS and then once with F12/DMEM. Peptide stocks were reconstituted in 100 mM Hepes buffered water, pH 7.2, at a concentration of 5 mg/mL. Working concentrations of the peptide were diluted in assay buffer (see below). 75 uL of a desired concentration of peptide was added to the top row of a separate 96 well microtiter plate and serially diluted 1:3 in 50 uL of the assay buffer (F12/DMEM, 1% BSA, 0.05% NaN_3 and 0.025 mM Hepes pH 7.2). Starting concentrations ranged from 50–500 uM. Next, 50 uL of the diluted peptide was transferred to the 96 microtiter well plate containing a monolayer of CHO FcεRI+ cells. […] Cells were […]

Bridges are numbered along the chain shown (N, C = ends). Where no end group is shown, it is not given here. [ ]: non-standard residue; d: D form. Pip = O=C(O)[C@@H]1CCCCN1; dPip = O=C(O)[C@H]1CCCCN1; hCys = N[C@@H](CCS)C(=O)O; NMeA = CN[C@@H](C)C(=O)O

The molecule VQCPHF[hCys]YFGGAELCPDVCYV-NH2 (disulfide 7-15, 3-19) [IGE166] gave an IC50 of 65000 nM.

For the molecule VQC[dPip]HFCYFGGAELCPDVCYV-NH2 (disulfide 7-15, 3-19) [IGE162-1], the IC50 was 4090 nM.

Ac-CPHFCYFGAELCPDVCY-NH2 (not fully specified (bridges); cysteine pairing not given here) [IGE171]: the IC50 is 290 nM.

VQCPHFCYFGAELCPDVCYV (disulfide 7-14, 3-18) [IGE152] displayed an IC50 of 52 nM.

B1: IGE169 (peptide)
peptide: VQCPHFCYFGAELCPAVCYV-NH2
modifications: disulfide 7-14, 3-18; N-terminus assumed
SMILES: CC(C)C[C@@H]1NC(=O)[C@H](CCC(=O)O)NC(=O)[C@H](C)NC(=O)CNC(=O)[C@H](Cc2ccccc2)NC(=O)[C@H](Cc2ccc(O)cc2)NC(=O)[C@@H]2CSSC[C@H](NC1=O)C(=O)N1CCC[C@H]1C(=O)N[C@@H](C)C(=O)N[C@@H](C(C)C)C(=O)N[C@H](C(=O)N[C@@H](Cc1ccc(O)cc1)C(=O)N[C@H](C(N)=O)C(C)C)CSSC[C@H](NC(=O)[C@H](CCC(N)=O)NC(=O)[C@@H](N)C(C)C)C(=O)N1CCC[C@H]1C(=O)N[C@@H](Cc1c[nH]cn1)C(=O)N[C@@H](Cc1ccccc1)C(=O)N2
For the molecule B1, the IC50 amounted to 128 nM.

For Ac-VQCPHFCYELDYELCPDVCYV-NH2 (not fully specified (bridges); cysteine pairing not given here) [IGE179], the IC50 amounted to 220 nM.

Molecule VQCPHFCYFGGAELC[Pip]DVCYV-NH2 (disulfide 7-15, 3-19) [IGE161-2] registered an IC50 of 680 nM.

B2: IGE146 (peptide)
peptide: VQCPHFCYVGEALCPDVCYV-NH2
modifications: disulfide 7-14, 3-18; N-terminus assumed
SMILES: CC(C)C[C@@H]1NC(=O)[C@H](C)NC(=O)[C@H](CCC(=O)O)NC(=O)CNC(=O)[C@H](C(C)C)NC(=O)[C@H](Cc2ccc(O)cc2)NC(=O)[C@@H]2CSSC[C@H](NC1=O)C(=O)N1CCC[C@H]1C(=O)N[C@@H](CC(=O)O)C(=O)N[C@@H](C(C)C)C(=O)N[C@H](C(=O)N[C@@H](Cc1ccc(O)cc1)C(=O)N[C@H](C(N)=O)C(C)C)CSSC[C@H](NC(=O)[C@H](CCC(N)=O)NC(=O)[C@@H](N)C(C)C)C(=O)N1CCC[C@H]1C(=O)N[C@@H](Cc1c[nH]cn1)C(=O)N[C@@H](Cc1ccccc1)C(=O)N2
In the case of B2, the IC50 came out at 890 nM.

B3: IGE156 (peptide)
peptide: VQCPHFCYELDYELCPDVCYVGR
modifications: not fully specified (bridges); cysteine pairing not given here
notes: produced as Z-domain fusion in E. coli and released with trypsin
B3: the IC50 stood at 30 nM.

VQCPHFCYFGGAELC[dPip]DVCYV-NH2 (disulfide 7-15, 3-19) [IGE161-1]: the IC50 turned out to be 41000 nM. Against the preceding molecule, the IC50 is about 1400-fold higher.

Turning to VQCPHFCYELFSRLCPDVCYV-NH2 (disulfide (positions not given here); also: two disulfides, pairing not settled) [IGE182], the IC50 came to 80 nM.

B4: IGE158 (peptide)
peptide: VQCPHFCYFGGAELC[NMeA]DVCYV-NH2
modifications: disulfide 7-15, 3-19; N-terminus assumed
SMILES: CC(C)C[C@@H]1NC(=O)[C@H](CCC(=O)O)NC(=O)[C@H](C)NC(=O)CNC(=O)CNC(=O)[C@H](Cc2ccccc2)NC(=O)[C@H](Cc2ccc(O)cc2)NC(=O)[C@@H]2CSSC[C@H](NC1=O)C(=O)N(C)[C@@H](C)C(=O)N[C@@H](CC(=O)O)C(=O)N[C@@H](C(C)C)C(=O)N[C@H](C(=O)N[C@@H](Cc1ccc(O)cc1)C(=O)N[C@H](C(N)=O)C(C)C)CSSC[C@H](NC(=O)[C@H](CCC(N)=O)NC(=O)[C@@H](N)C(C)C)C(=O)N1CCC[C@H]1C(=O)N[C@@H](Cc1c[nH]cn1)C(=O)N[C@@H](Cc1ccccc1)C(=O)N2
As for B4, the IC50 worked out at 1080 nM.

In the case of CPHFCYELDYELCPDVCY-NH2 (not fully specified (bridges); cysteine pairing not given here) [IGE155], the IC50 is 69 nM.

Turning to CPHFCYFGAELCPDVCY-NH2 (not fully specified (bridges); cysteine pairing not given here) [IGE170], the IC50 turned out to be 200 nM.

B5: IGE183 (peptide)
peptide: VQCPHFCYDASRLCPDVCYV-NH2
modifications: disulfide (positions not given here); not fully specified (bridges); printed as VQCPHFCYDASRLCPDVCYV-nh2
Take B5: the IC50 was found to be 30 nM.

VQC[Pip]HFCYFGGAELCPDVCYV-NH2 (disulfide 7-15, 3-19) [IGE162-2] returned an IC50 of 430 nM.

VQCPHFCYFGGAEL[hCys]PDVCYV-NH2 (disulfide (positions not given here)) [IGE164] had an IC50 of 40700 nM.

Turning to VQCPHFCYELDYELCPDVCY-NH2 (not fully specified (bridges); cysteine pairing not given here) [IGE153], the IC50 was found to be 49 nM.

B6: IGE159 (peptide)
peptide: VQC[NMeA]HFCYFGGAELCPDVCYV-NH2
modifications: disulfide 7-15, 3-19; N-terminus assumed
SMILES: CC(C)C[C@@H]1NC(=O)[C@H](CCC(=O)O)NC(=O)[C@H](C)NC(=O)CNC(=O)CNC(=O)[C@H](Cc2ccccc2)NC(=O)[C@H](Cc2ccc(O)cc2)NC(=O)[C@@H]2CSSC[C@H](NC1=O)C(=O)N1CCC[C@H]1C(=O)N[C@@H](CC(=O)O)C(=O)N[C@@H](C(C)C)C(=O)N[C@H](C(=O)N[C@@H](Cc1ccc(O)cc1)C(=O)N[C@H](C(N)=O)C(C)C)CSSC[C@H](NC(=O)[C@H](CCC(N)=O)NC(=O)[C@@H](N)C(C)C)C(=O)N(C)[C@@H](C)C(=O)N[C@@H](Cc1c[nH]cn1)C(=O)N[C@@H](Cc1ccccc1)C(=O)N2
With B6, the half-maximal inhibitory concentration (IC50) came to 380 nM. This IC50 lies about 7.8-fold higher than the previous one.

B7: IGE167 (peptide)
peptide: VQCPHFCYFGAELCPDVCYV-NH2
modifications: disulfide 7-14, 3-18; N-terminus assumed
SMILES: CC(C)C[C@@H]1NC(=O)[C@H](CCC(=O)O)NC(=O)[C@H](C)NC(=O)CNC(=O)[C@H](Cc2ccccc2)NC(=O)[C@H](Cc2ccc(O)cc2)NC(=O)[C@@H]2CSSC[C@H](NC1=O)C(=O)N1CCC[C@H]1C(=O)N[C@@H](CC(=O)O)C(=O)N[C@@H](C(C)C)C(=O)N[C@H](C(=O)N[C@@H](Cc1ccc(O)cc1)C(=O)N[C@H](C(N)=O)C(C)C)CSSC[C@H](NC(=O)[C@H](CCC(N)=O)NC(=O)[C@@H](N)C(C)C)C(=O)N1CCC[C@H]1C(=O)N[C@@H](Cc1c[nH]cn1)C(=O)N[C@@H](Cc1ccccc1)C(=O)N2
With B7, the IC50 turned out to be 120 nM.

With VQCPHFCYFGGAELCPDVCYV (not fully specified (bridges); cysteine pairing not given here) [IGE151], the IC50 amounted to 130 nM. This IC50 and that of the molecule before are within 1.5-fold of each other.

For the molecule VQCPHFCYFGGAELCPDV[hCys]YV-NH2 (disulfide (positions not given here)) [IGE165], the IC50 is 1170 nM.

QCPHFCYELDYELCPDVCY-NH2 (not fully specified (bridges); cysteine pairing not given here) [IGE157] gave an IC50 of 107 nM. This IC50 is about 11-fold lower than that of the molecule before.

B8: IGE168 (peptide)
peptide: Ac-VQCPHFCYFGAELCPDVCYV-NH2
modifications: disulfide 7-14, 3-18
SMILES: CC(=O)N[C@H](C(=O)N[C@@H](CCC(N)=O)C(=O)N[C@H]1CSSC[C@@H](C(=O)N[C@@H](Cc2ccc(O)cc2)C(=O)N[C@H](C(N)=O)C(C)C)NC(=O)[C@H](C(C)C)NC(=O)[C@H](CC(=O)O)NC(=O)[C@@H]2CCCN2C(=O)[C@@H]2CSSC[C@H](NC(=O)[C@H](Cc3ccccc3)NC(=O)[C@H](Cc3c[nH]cn3)NC(=O)[C@@H]3CCCN3C1=O)C(=O)N[C@@H](Cc1ccc(O)cc1)C(=O)N[C@@H](Cc1ccccc1)C(=O)NCC(=O)N[C@@H](C)C(=O)N[C@@H](CCC(=O)O)C(=O)N[C@@H](CC(C)C)C(=O)N2)C(C)C
In turn, B8 came in with an IC50 of 260 nM.

The IC50 is the point on the concentration scale where inhibition reaches its midpoint.
